Experimental data as given in US20100144636A1, “PEPTIDES DERIVED FROM RAS-P21 AND USES THEREFOR” (THE RESEARCH FOUNDATION OF STATE UNIVERSITY OF NEW YORK, priority 2008, published 2010).

B1: GST-pi: glutathione-S-transferase, pi isozyme, selective inhibitor of JNK-induced phosphorylation of jun (protein, UniProt P09211 2-210, looked up)
Glutathione S-transferase P: PPYTVVYFPVRGRCAALRMLLADQGQSWKEEVVTVETWQEGSLKASCLYGQLPKFQDGDLTLYQSNTILRHLGRTLGLYGKDQQEAALVDMVNDGVEDLRCKYISLIYTNYEAGKDDYVKALPGQLKPFETLLSQNQGGKTFIVGDQISFADYNLLDLLLIHEVLAPGCLDAFPLLSAYVGRLSARPKLKAFLASPEYVNLPINGNGKQ
B2: MKP-1T4: MAPK phosphatase that de-activates this kinase (protein, UniProt P28562 1-367, looked up)
Dual specificity protein …: MVMEVGTLDAGGLRALLGERAAQCLLLDCRSFFAFNAGHIAGSVNVRFSTIVRRRAKGAMGLEHIVPNAELRGRLLAGAYHAVVLLDERSAALDGAKRDGTLALAAGALCREARAAQVFFLKGGYEAFSASCPELCSKQSTPMGLSLPLSTSVPDSAESGCSSCSTPLYDQGGPVEILPFLYLGSAYHASRKDMLDALGITALINVSANCPNHFEGHYQYKSIPVEDNHKADISSWFNEAIDFIDSIKNAGGRVFVHCQAGISRSATICLAYLMRTNRVKLDEAFEFVKQRRSIISPNFSFMGQLLQFESQVLAPHCSAEAGSPAMAVLDRGTSTTTVFNFPVSIPVHSTNSALSYLQSPITTSPSC

Assays:
[1] = tested on: insulin-induced oocyte maturation; test: Insulin-induced oocyte maturation (activated wild-type ras-p21); format: cell-based, Xenopus laevis; settings: oocytes induced to mature with insulin
Text: (§1) The Applicants have synthesized both of the inventive peptides, referred to as PNC-7 and PNC-2, and assayed them for their abilities to block oncogenic ras-p21 induction of maturation of Xenopus laevis oocytes. Injection of oncogenic, but not wild-type ras-p21, into these oocytes induce oocyte maturation, i.e., completion of the second meiotic division, as measured by germinal vesicle membrane breakdown (GVBD). Insulin also induces oocyte maturation in a manner that requires activation of endogenous wild-type ras-p21.

[2] = tested on: oncogenic (Val 12-containing) ras-p21-induced oocyte maturation; test: Oncogenic ras-p21-induced oocyte maturation (GVBD); format: cell-based, Xenopus laevis; settings: injected/co-injected with oncogenic ras-p21 into oocytes
Text: as §1

Molecule	inhibition of insulin-induced oocyte maturation [1]	inhibition of oncogenic ras-p21-induced oocyte maturation [2]
B1	no effect	complete inhibition of oocyte maturation
B2	considerably less effect	completely blocks
